Test: yeast display, Sf9 membrane polyspecificity reagent, FACS + sequencing; frameworks hold sequencing errors
Summary of the method: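 A nanobody's polyreactivity label depends on the gate it was sorted from. Yeast display cells were stained with 10% biotinylated, detergent-solubilized Sf9 membrane reagent for 1 hour at 4 °C, enriched on streptavidin microbeads and sorted by FACS. The low and high (top ~1%) gates were set on anti-HA fluorescence for expression and streptavidin fluorescence for reagent binding.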

Sequence | polyreactivity (PSR sort gate)
QVQLVESGGGLVQAGGSLRLSCAASGFIFYDNAMGWYRQAPGKERELVAAITSGGSTYYADSVKGRFTISRDNAKNTVYLQMNSLKPEDTAVYYCATRPWGSWYYYWGQGTQVTVSS | high polyreactivity
QVQLVESGGGLVQAGGSLRLSCAASGFIFYDYAMGWYRQAPGKERELVASISWSTGSTYYADSVKGRFTISRDNAKNTVYLQMNSLKPEDTADYYCAADGYPLQLYNYWGQGTQVTVSS | low polyreactivity
QVQLVESGGGLVQAGGSLRLSCAASGFIFYDYDMGWYRQSPGKERELVAAISSGGSTNYADSVKGRFTISRDNAKNTVYLQMNSLIPEDTAVYYCATDVGVERRQVDRYIYDYWGQGTQVTVSS | low polyreactivity
QVQLVESGGGLVQAGGSLRLSCAASGFIFYGYAMGWYRQAPGKERELVAGISTGGSTNYADSVKGRFTISRDNAKNTVYLQMNSLKPEDTAVYYCAKRAYFYYGRYDYWGQGTQVTVSS | low polyreactivity
QVQLVESGGGLVQAGGSLRLSCAASGFIFYGYTMGWYRQAPGKERELLARISRRGGSTYYADSVKGRFTISRDNAKNTVYLQMNSLKPEDTAVYYCATDDARRGYGYGYWGQGPQVTVSS | low polyreactivity
QVQLVESGGGLVQAGGSLRLSCAASGFIFYGYTMGWYRQAPGKERELVAAITFSGGRTYYADSVKGRFTISRDNAKNTVYLQMNSLKPEDTAVYYCNARVVNYFRPRTGAREYDYWGQGTQVTVSS | high polyreactivity
QVQLVESGGGLVQAGGSLRLSCAASGFIFYHNAMGWYRQAPGKERELVAAISSTGGSTHYADSVKGRFTISRDNAKNTVYLQMNSLKPEDTAVYYCNADPRRRWYDYWGQGTQVTVSS | high polyreactivity
QVQLVESGGGLVQAGGSLRLSCAASGFIFYHNAMGWYRQAPGKERELVAAISYSGGSTYYADSVKGRFTISRVNAKNTVYLQMNSLKPEDTAVYFCATPQTRTYDYWGQGTQVTVSS | high polyreactivity
QVQLVESGGGLVQAGGSLRLSCAASGFIFYINAMGWYRQAPGKERELVAAINWRTGSTYYADSVKGRFTISRDNAKNTVYLLMNSLKPEDTAVYYCAAYGYWRRADTEFDYWGQGTQVTVSS | low polyreactivity
QVQLVESGGGLVQAGGSLRLSCAASGFIFYIYAMGWYRQAPGKERELVAAFTSGGSTYYADSVKGRFTISRDNAKNTVYLQMNSLKPEDTAVYYCAAESYYGYDYWGQGTQVTVSS | low polyreactivity
QVQLVESGGGLVQAGGSLRLSCAASGFIFYKYAMGWYRQAPGKERELVAAITRSGGSTFYADSVKGRFTISRDNAKNTVYLQMNSLKPEDTAVYYCAADAIVQVTPRPRRYDYWGQGTQVTVSS | high polyreactivity
QVQLVESGGGLVQAGGSLRLSCAASGFIFYKYGMGWYRQAPGKERELVAAINRRGGTTSYADSVKGRFTISRDNAKNTVYLQMNSLKPEDTAVYYCAASAPGGQDDYWGQGTQVTVSS | high polyreactivity
QVQLVESGGGLVQAGGSLRLSCAASGFIFYKYVMAWYRQAPGKERELVAAINWSGGSTYYADSVKGRFTISRDNAKNTVYLQMNSLKPEDTAVYYCAALSQYRYDYWGQGTQVTVSS | high polyreactivity
QVQLVESGGGLVQAGGSLRLSCAASGFIFYLNVMGWYRQAPGKERELVATITSGGSTNYADSVKGRFTISRDNAKNTVYLQMNSLKPEDTAVYYCAAEQVWYDWEYDYWGQGTQVTVSS | high polyreactivity
QVQLVESGGGLVQAGGSLRLSCAASGFIFYPNAMGWYRQAPGKERELVAGISWSGTSTYYADSVKGRFTISRDNAKNTVYLQMNSLKPEDTAVYYCNRVFYHFDVDRYDYWGQGTQVTVSS | low polyreactivity
QVQLVESGGGLVQAGGSLRLSCAASGFIFYPYAMGWYRQAPGKERELVAVITSGGRTYYADSVKGRFTISRDNAKNTVYLQMNSLKPEDTAVYYCAAQYIQAWRLFDYWGQGTQVTVSS | low polyreactivity
